According to article PMC8626477:

Legend:
[1] = target: E2 of the Chaetomium thermophilum pyruvate dehydrogenase complex (PDHc) (Chaetomium thermophilum); experiment: cryo-EM structure; native C. thermophilum cell extract, SEC fraction 6, vitrified at 0.3 mg/mL total protein; 10249 particles; reconstructions with icosahedral (3.85 Å), C2 (6.21 Å) and C1 (7.62 Å) symmetry
[2] = target: E3BP of the Chaetomium thermophilum pyruvate dehydrogenase complex (PDHc) (Chaetomium thermophilum); experiment: as above

E2 of the Chaetomium thermophilum pyruvate dehydrogenase complex (PDHc) (enzyme)
stoichiometry N [1]: 60

E3BP of the Chaetomium thermophilum pyruvate dehydrogenase complex (PDHc) (natural protein)
stoichiometry N [1]: 12 | stoichiometry N [2]: 3
